From patent US7033590 (BAXTER AKTIENGESELLSCHAFT, dated 2006) come the findings set out here.

Non-standard residues stand in square brackets, D forms with d. No end group written: not given here.

The target in assay [1] is T1, human activated factor IX (human FIXa) (human, UniProt P00740 47-191; P00740 227-461). The experiment in a line: cell-based or functional assay.
Assay [2] concerns the target T1, human activated factor IX (human FIXa). Kind of assay: cell-based or functional assay. The source holds these as a separate data set.
Assay [3] deals with T2, human coagulation factor (F) IX (human, UniProt P00740 47-461).
T2 construct: also called Factor IX; factor IX
The experiment in a line: Western blot and ELISA.

The target of assay [4] is T1, human activated factor IX (human FIXa). Kind of assay: cell-based or functional assay. This is another data set of the same source.

T2 sequence (P00740 47-461 limits assumed): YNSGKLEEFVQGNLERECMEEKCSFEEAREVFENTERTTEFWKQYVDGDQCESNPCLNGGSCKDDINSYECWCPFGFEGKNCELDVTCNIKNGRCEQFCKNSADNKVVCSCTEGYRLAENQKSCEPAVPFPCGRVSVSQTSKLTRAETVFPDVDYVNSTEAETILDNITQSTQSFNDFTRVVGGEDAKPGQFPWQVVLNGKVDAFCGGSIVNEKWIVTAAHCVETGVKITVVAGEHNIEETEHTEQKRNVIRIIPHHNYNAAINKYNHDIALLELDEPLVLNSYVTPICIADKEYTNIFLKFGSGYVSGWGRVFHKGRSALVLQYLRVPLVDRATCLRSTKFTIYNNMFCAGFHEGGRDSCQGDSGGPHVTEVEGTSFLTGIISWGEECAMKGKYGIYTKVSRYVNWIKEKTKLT

Regarding unspecific mouse IgG (antibody), in assay [1], the clotting time, aPTT one-stage assay, FVIII deficient plasma, 50 ng FIXa, 0.23 µg antibody came to 104 s; the clotting time, aPTT one-stage assay, FVIII deficient plasma, 50 ng FIXa, 0.34 µg antibody is 104 s; the clotting time, aPTT one-stage assay, FVIII deficient plasma, 50 ng FIXa, 0.45 µg antibody is 102 s; the clotting time, aPTT one-stage assay, FVIII deficient plasma, 50 ng FIXa, 0.9 µg antibody was found to be 102 s. In assay [1], this molecule displayed a clotting time, aPTT one-stage assay, FVIII deficient plasma, 50 ng FIXa, 1.35 µg antibody of 103 s; a clotting time, aPTT one-stage assay, FVIII deficient plasma, 50 ng FIXa, 1.8 µg antibody of 102 s; a clotting time, aPTT one-stage assay, FVIII deficient plasma, 50 ng FIXa, 2.25 µg antibody of 103 s; a clotting time, aPTT one-stage assay, FVIII deficient plasma, 50 ng FIXa, 4.5 µg antibody of 103 s. The molecule further showed a clotting time, aPTT one-stage assay, FVIII deficient plasma, 50 ng FIXa, 9 µg antibody in assay [1] of 102 s.
For the molecule “Factor VIII (from UniProt P00451 20-2351)”, in assay [1], the clotting time, aPTT one-stage (Pathromtin SL), FVIII deficient plasma, 2.2 nM human FIXa, FVIII 6.25 mU/ml, average (IZ buffer 108) amounted to 59 s; the clotting time, aPTT one-stage (Pathromtin SL), FVIII deficient plasma, 2.2 nM human FIXa, FVIII 6.25 mU/ml, duplicate 1 (IZ buffer 107.9) stood at 58.6 s; the clotting time, aPTT one-stage (Pathromtin SL), FVIII deficient plasma, 2.2 nM human FIXa, FVIII 6.25 mU/ml, duplicate 2 (IZ buffer 108.7) worked out at 58.9 s; the clotting time, aPTT one-stage (Pathromtin SL), FVIII deficient plasma, 2.2 nM human FIXa, FVIII 12.5 mU/ml, average (IZ buffer 108) was 53 s. Also, in assay [1], the clotting time, aPTT one-stage (Pathromtin SL), FVIII deficient plasma, 2.2 nM human FIXa, FVIII 12.5 mU/ml, duplicate 1 (IZ buffer 107.9) was determined as 52.9 s and the clotting time, aPTT one-stage (Pathromtin SL), FVIII deficient plasma, 2.2 nM human FIXa, FVIII 12.5 mU/ml, duplicate 2 (IZ buffer 108.7) turned out to be 53.6 s.

B1: peptide A1/3 (peptide)
peptide: RRREGGGYYVNWYFDRRR
With B1, in assay [2], the “clotting time, aPTT one-stage assay (Table 4), 2.2 nM FIXa, peptide 1.25 µM, average (IZ buffer 96)” value worked out at 95 s; the “clotting time, aPTT one-stage assay (Table 4), 2.2 nM FIXa, peptide 1.25 µM, duplicate 1 (IZ buffer 96)” value was determined as 94.4 s; the “clotting time, aPTT one-stage assay (Table 4), 2.2 nM FIXa, peptide 1.25 µM, duplicate 2 (IZ buffer 96)” value was 95 s; the “clotting time, aPTT one-stage assay (Table 4), 2.2 nM FIXa, peptide 2.5 µM, average (IZ buffer 96)” value came to 93 s. Moreover, in assay [2], the “clotting time, aPTT one-stage assay (Table 4), 2.2 nM FIXa, peptide 2.5 µM, duplicate 1 (IZ buffer 96)” value was 93.6 s; the “clotting time, aPTT one-stage assay (Table 4), 2.2 nM FIXa, peptide 2.5 µM, duplicate 2 (IZ buffer 96)” value is 93.3 s; the “clotting time, aPTT one-stage assay (Table 4), 2.2 nM FIXa, peptide 5 µM, average (IZ buffer 96)” value turned out to be 89 s; the “clotting time, aPTT one-stage assay (Table 4), 2.2 nM FIXa, peptide 5 µM, duplicate 1 (IZ buffer 96)” value amounted to 89.7 s. Further, in assay [2], the “clotting time, aPTT one-stage assay (Table 4), 2.2 nM FIXa, peptide 5 µM, duplicate 2 (IZ buffer 96)” value was determined as 88.3 s; the “clotting time, aPTT one-stage assay (Table 4), 2.2 nM FIXa, peptide 7.5 µM, average (IZ buffer 96)” value came to 81 s; the “clotting time, aPTT one-stage assay (Table 4), 2.2 nM FIXa, peptide 7.5 µM, duplicate 1 (IZ buffer 96)” value came out at 80.7 s; the “clotting time, aPTT one-stage assay (Table 4), 2.2 nM FIXa, peptide 7.5 µM, duplicate 2 (IZ buffer 96)” value amounted to 80.5 s. For the same molecule, in assay [2], the “clotting time, aPTT one-stage assay (Table 4), 2.2 nM FIXa, peptide 10 µM, average (IZ buffer 96)” value came to 73 s; the “clotting time, aPTT one-stage assay (Table 4), 2.2 nM FIXa, peptide 10 µM, duplicate 1 (IZ buffer 96)” value came out at 72 s; the “clotting time, aPTT one-stage assay (Table 4), 2.2 nM FIXa, peptide 10 µM, duplicate 2 (IZ buffer 96)” value is 73.2 s; the “clotting time, aPTT one-stage assay (Table 4), 2.2 nM FIXa, peptide 12.5 µM, average (IZ buffer 96)” value is 67 s. In assay [2], the “clotting time, aPTT one-stage assay (Table 4), 2.2 nM FIXa, peptide 12.5 µM, duplicate 1 (IZ buffer 96)” value was 65 s; the “clotting time, aPTT one-stage assay (Table 4), 2.2 nM FIXa, peptide 12.5 µM, duplicate 2 (IZ buffer 96)” value was determined as 68 s; the “clotting time, aPTT one-stage assay (Table 4), 2.2 nM FIXa, peptide 15 µM, average (IZ buffer 96)” value was 56 s; the “clotting time, aPTT one-stage assay (Table 4), 2.2 nM FIXa, peptide 15 µM, duplicate 1 (IZ buffer 96)” value came to 56.1 s. Moreover, the “clotting time, aPTT one-stage assay (Table 4), 2.2 nM FIXa, peptide 15 µM, duplicate 2 (IZ buffer 96)” value in assay [2] is 55.5 s.

B2: peptide A1/3-Rd-srmb (peptide)
peptide: [dR][dR][dR]GEYGVYWNGDFY[dR][dR][dR]
Turning to B2, in assay [2], the “clotting time, aPTT one-stage assay (Table 4), 2.2 nM FIXa, peptide 1.25 µM, average (IZ buffer 96)” value came to 103 s; the “clotting time, aPTT one-stage assay (Table 4), 2.2 nM FIXa, peptide 1.25 µM, duplicate 1 (IZ buffer 96)” value came to 101 s; the “clotting time, aPTT one-stage assay (Table 4), 2.2 nM FIXa, peptide 1.25 µM, duplicate 2 (IZ buffer 96)” value turned out to be 105 s; the “clotting time, aPTT one-stage assay (Table 4), 2.2 nM FIXa, peptide 2.5 µM, average (IZ buffer 96)” value turned out to be 105 s. In assay [2], the “clotting time, aPTT one-stage assay (Table 4), 2.2 nM FIXa, peptide 2.5 µM, duplicate 1 (IZ buffer 96)” value is 105 s; the “clotting time, aPTT one-stage assay (Table 4), 2.2 nM FIXa, peptide 2.5 µM, duplicate 2 (IZ buffer 96)” value was 104 s; the “clotting time, aPTT one-stage assay (Table 4), 2.2 nM FIXa, peptide 5 µM, average (IZ buffer 96)” value is 108 s; the “clotting time, aPTT one-stage assay (Table 4), 2.2 nM FIXa, peptide 5 µM, duplicate 1 (IZ buffer 96)” value was 108 s. Also, in assay [2], the “clotting time, aPTT one-stage assay (Table 4), 2.2 nM FIXa, peptide 5 µM, duplicate 2 (IZ buffer 96)” value was 108 s; the “clotting time, aPTT one-stage assay (Table 4), 2.2 nM FIXa, peptide 7.5 µM, average (IZ buffer 96)” value came out at 107 s; the “clotting time, aPTT one-stage assay (Table 4), 2.2 nM FIXa, peptide 7.5 µM, duplicate 1 (IZ buffer 96)” value came out at 108 s; the “clotting time, aPTT one-stage assay (Table 4), 2.2 nM FIXa, peptide 7.5 µM, duplicate 2 (IZ buffer 96)” value came out at 107 s. In assay [2], the “clotting time, aPTT one-stage assay (Table 4), 2.2 nM FIXa, peptide 10 µM, average (IZ buffer 96)” value was found to be 108 s; the “clotting time, aPTT one-stage assay (Table 4), 2.2 nM FIXa, peptide 10 µM, duplicate 1 (IZ buffer 96)” value was determined as 107 s; the “clotting time, aPTT one-stage assay (Table 4), 2.2 nM FIXa, peptide 10 µM, duplicate 2 (IZ buffer 96)” value worked out at 108 s; the “clotting time, aPTT one-stage assay (Table 4), 2.2 nM FIXa, peptide 12.5 µM, average (IZ buffer 96)” value amounted to 108 s. In assay [2], the “clotting time, aPTT one-stage assay (Table 4), 2.2 nM FIXa, peptide 12.5 µM, duplicate 1 (IZ buffer 96)” value was 108 s; the “clotting time, aPTT one-stage assay (Table 4), 2.2 nM FIXa, peptide 12.5 µM, duplicate 2 (IZ buffer 96)” value was 108 s; the “clotting time, aPTT one-stage assay (Table 4), 2.2 nM FIXa, peptide 15 µM, average (IZ buffer 96)” value turned out to be 113 s; the “clotting time, aPTT one-stage assay (Table 4), 2.2 nM FIXa, peptide 15 µM, duplicate 1 (IZ buffer 96)” value came out at 113 s. The “clotting time, aPTT one-stage assay (Table 4), 2.2 nM FIXa, peptide 15 µM, duplicate 2 (IZ buffer 96)” value in assay [2] is 112 s.

B3: irrelevant monoclonal antibody #8860 (antibody, V domains shown)
VH: EVQLQQSGPELVKPGASVKISCKASGYAFSSSWMNWVKQRPGQGLEWIGRIYPGNGDTNYNGKFKGKATLTADKSSSTAYMQLSSLTSVDSAVYFCADGNVYYYAMDYWGQGTSVTVSS
VL: QIVLTQSPASLAVSLGQRATISCRASKSVSTSGYSYMHWYQQKPGQPPKLLIYLASNLESGVPARFSGSGSGTDFTLNIHPVEEEDAATYYCQHSRELPRTFGGGTKLEIKR
notes: Tested as the monoclonal antibody
For the molecule B3, the binding result in assay [3] is listed as “no binding”.

B4: peptide A1/3-Rd (peptide)
peptide: [dR][dR][dR]EGGGYYVNWYFD[dR][dR][dR]
In the case of B4, in assay [2], the “clotting time, aPTT one-stage assay (Table 4), 2.2 nM FIXa, peptide 1.25 µM, average (IZ buffer 96)” value came to 96 s; the “clotting time, aPTT one-stage assay (Table 4), 2.2 nM FIXa, peptide 1.25 µM, duplicate 1 (IZ buffer 96)” value turned out to be 96.6 s; the “clotting time, aPTT one-stage assay (Table 4), 2.2 nM FIXa, peptide 1.25 µM, duplicate 2 (IZ buffer 96)” value is 96 s; the “clotting time, aPTT one-stage assay (Table 4), 2.2 nM FIXa, peptide 2.5 µM, average (IZ buffer 96)” value stood at 95 s. Further, in assay [2], the “clotting time, aPTT one-stage assay (Table 4), 2.2 nM FIXa, peptide 2.5 µM, duplicate 1 (IZ buffer 96)” value stood at 94.4 s; the “clotting time, aPTT one-stage assay (Table 4), 2.2 nM FIXa, peptide 2.5 µM, duplicate 2 (IZ buffer 96)” value was found to be 94.7 s; the “clotting time, aPTT one-stage assay (Table 4), 2.2 nM FIXa, peptide 5 µM, average (IZ buffer 96)” value is 86 s; the “clotting time, aPTT one-stage assay (Table 4), 2.2 nM FIXa, peptide 5 µM, duplicate 1 (IZ buffer 96)” value was found to be 86 s. For the same molecule, in assay [2], the “clotting time, aPTT one-stage assay (Table 4), 2.2 nM FIXa, peptide 5 µM, duplicate 2 (IZ buffer 96)” value was 85.1 s; the “clotting time, aPTT one-stage assay (Table 4), 2.2 nM FIXa, peptide 7.5 µM, average (IZ buffer 96)” value was determined as 82 s; the “clotting time, aPTT one-stage assay (Table 4), 2.2 nM FIXa, peptide 7.5 µM, duplicate 1 (IZ buffer 96)” value came out at 80.9 s; the “clotting time, aPTT one-stage assay (Table 4), 2.2 nM FIXa, peptide 7.5 µM, duplicate 2 (IZ buffer 96)” value worked out at 82.2 s. Also, in assay [2], the “clotting time, aPTT one-stage assay (Table 4), 2.2 nM FIXa, peptide 10 µM, average (IZ buffer 96)” value worked out at 76 s; the “clotting time, aPTT one-stage assay (Table 4), 2.2 nM FIXa, peptide 10 µM, duplicate 1 (IZ buffer 96)” value was determined as 74.2 s; the “clotting time, aPTT one-stage assay (Table 4), 2.2 nM FIXa, peptide 10 µM, duplicate 2 (IZ buffer 96)” value stood at 77.2 s; the “clotting time, aPTT one-stage assay (Table 4), 2.2 nM FIXa, peptide 12.5 µM, average (IZ buffer 96)” value amounted to 73 s. In assay [2], the “clotting time, aPTT one-stage assay (Table 4), 2.2 nM FIXa, peptide 12.5 µM, duplicate 1 (IZ buffer 96)” value is 72.3 s; the “clotting time, aPTT one-stage assay (Table 4), 2.2 nM FIXa, peptide 12.5 µM, duplicate 2 (IZ buffer 96)” value was found to be 73.7 s; the “clotting time, aPTT one-stage assay (Table 4), 2.2 nM FIXa, peptide 15 µM, average (IZ buffer 96)” value stood at 75 s; the “clotting time, aPTT one-stage assay (Table 4), 2.2 nM FIXa, peptide 15 µM, duplicate 1 (IZ buffer 96)” value was 76.1 s. Further, the “clotting time, aPTT one-stage assay (Table 4), 2.2 nM FIXa, peptide 15 µM, duplicate 2 (IZ buffer 96)” value in assay [2] was 74.4 s.

B5: monoclonal antibody 198/B1 (antibody, V domains shown)
VH: EVQLQESGGGLVKPGGSLKLSCAASGFTFSSYTMSWVRQTPEKRLEWVATISSGGSSTYYPDSVKGRFTISRDNAKNTLYLQMSSLRSEDTAMYYCTREGGGFTVNWYFDVWGAGTLVTVSA
VL: ENVLTQSPASLAVSLGQRATISCRASESVDSYGYNFMHWYQQIPGQPPKLLIYRASNLESGIPARFSGSGSRTDFTLTINPVEADDVATYYCQQSNEDPLTFGTGTRLEIKR
Regarding B5, the “amidolytic activity of FIXa (cleavage of CH3SO2-D-CHG-Gly-Arg-pNA, OD405), 20 mU FIXa (Stago), various amounts of antibody” value in assay [4] is at least 2 fold.
